Data published in the supplement of paper PMC9170038.

Test system: MS2 coat protein
Experiment: apparent KD of MS2 coat protein; designed switch direction (-1 OFF switch, 1 ON switch): -1; higher = weaker reporter binding
Method in brief: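 Designed RNA switches were transcribed on Illumina chips by stalled E. coli RNA polymerase and titrated with SNAP-549-labelled MS2 coat protein from 0.7 or 1.5 nM, doubling to 3 µM. Step length ran from 0.8–1.5 h at the lowest concentration to 10–20 min at the highest. The apparent KD is the median over clusters for each design, from curve-fitted normalised cluster fluorescence.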

[1] = Eterna round: R95, input ligand: FMN 200 uM
[2] = Eterna round: R95, input ligand: microRNA oligo, concentration not stated
[3] = Eterna round: R95, input ligand: none
[4] = input ligand: microRNA oligo, concentration not stated

Sequence | apparent KD of MS2 coat protein [2] [nM] | apparent KD of MS2 coat protein (input ligand: FMN 200 uM) [nM] | apparent KD of MS2 coat protein (input ligand: none) [nM] | also measured
ACAAAGGGAGUCAGGAUAUCGGACGUAAGUCAAGACGAGAAGGGACAUGAGGAUCACCCAUGUCAGCGGUGAAA [Exclusion 4 S1] (puzzle: Brourd's mod of Exclusion 4) | 18.7 |  |  | apparent KD of MS2 coat protein [1]: 42.5 nM; apparent KD of MS2 coat protein [3]: 17 nM
GGACAUUCGGUAAGGAUAUUGACCCAACCUAGGAUCAAGAAGGUACAUGAGGAUCACCCAUGUCAGAUCCGUCA [Eternabot (Original) Solution 34] (Eterna round: R97, puzzle: Brourd's mod of Exclusion 4) |  | 27.4 | 16 | 
AGAUAGAGCUGAGGAUAUGAGAAUAGAAAGAAAUCAGAAGGCAGACAUGAGGAUCACCCAUGUGAGUUCUUGAGAUUACAUGGU [Prohibition 43 - Jieux - Exclusion NG 1] (Eterna round: R96, puzzle: Exclusion NG 1) |  | 498 | 247 | apparent KD of MS2 coat protein [4]: 221 nM
UAUAUGUCAGGAUAUUAGUAGUAAAUGAAUAAAAUUAUUACUGAGAAGGGACAUGAGGAUCACCCAUGUGUCUC [Mat - Exclusion 4 - Eli Mod - D26] (Eterna round: R97, puzzle: Exclusion 4) |  | 577 | 175 | 
AAUCUGUGAGGAUAUGGUGAGUAGUGCCUGAGCGCUGCUCACCAGAAGGCACAUGAGGAUCACCCAUGUAUGAC [Mat - Exclusion 4 - Mod of JL - D2] (puzzle: Exclusion 4) | 27.7 |  |  | 
UUUUAACAUGAGGAUCACCCAUGUGAGGAUAUCGAAAUUUAUAUUAAUAUUAUUUUAACGAGAAGGCACAUUUU [JMF 47] (puzzle: Exclusion 1) | 67.2 |  |  | 
AAGUUACAUGAGGAUCACCCAUGUGAGGAUAUGAGUCAGUCACGGUGACGUGGCUGACUCAGAAGGCACAUAGG [JL-ex1-4.42 salish99 mod] (Eterna round: R97, puzzle: Exclusion 1) |  | 256 | 77.1 | 
AAGUCCGAGCGAGGAUAUUCACCUCAGUCAGCUGAAGAAGGCGCUAAGCGGUGAUUAUUUUGUACAUGAGGAUCACCCAUGUCA [Eternabot solution 49] (Eterna round: R96, puzzle: Exclusion NG 1) |  | 20.7 | 22.6 | apparent KD of MS2 coat protein [4]: 21.2 nM
AAUGGCUGAGGAUAUACACUCACGUCUAAAAGGUUCAAAUGACAUGAGGAUCACCCAUGUAGAAGGCAGCCCGA [Regeor] (puzzle: Exclusion 2) | 98.4 |  |  | 
AUGUAGGAAGGAUAUGCGUCGGCAUGAAAUCCUUGUUGGCCACAUGAGGAUCACCCAUGUAGAAGGUUCACGUA [Eternabot (L2) Solution 10] (Eterna round: R97, puzzle: Exclusion 2) |  | 48.8 | 52.7 | 
GAGUACUUAGGAUAUACAUGAGGAUCACCCAUGUCUAGGCGGCGCUGGGUCCCUCGCAGUAGAAGGAAGCGCUG [Ceeranat] (puzzle: Exclusion 3) | 20.6 |  |  | 
GCUCAACAUGAGGAUCACCCAUGUGAGGAUAUGCGAAUUUCAUCAAAAGAUGAAAUUUGCAGAAGGCACUGAGC [Omei Ex1 A35] (Eterna round: R97, puzzle: Exclusion 1) |  | 17.4 | 16.5 | 
CUAGAGUCAGGAUAUACGAGAUCGAAAGAUCGGCGAUCCCUACAUGAGGAUCACCCAUGUAGAAGGGACUCUAG [Mod 11 - Jieux - Exclusion 2] (Eterna round: R97, puzzle: Exclusion 2) |  | 28.3 | 13.8 | 
GGUGGACAUGAGGAUCACCCAUGUGAGGAUAUCGGCUAUCUACUCGCUGACGGCUGCUCGAGAAGGCACAUUGU [Exclusion 1 V91] (puzzle: Exclusion 1) | 54.6 |  |  | 
UGUUGUCGCGCAGGAUAUGAGGAUCACCCAUAUAAAGGAUAUGAAAAGAAGGUUCUGAGGAUUACCCAGAAGGGCGGGACAACU [pwkr exNG2 2xF5 2xFMN.16] (Eterna round: R96, puzzle: Exclusion NG 2) |  | 250 | 52.3 | apparent KD of MS2 coat protein [4]: 40.3 nM
UUCCGACAUGAGGAUCACCCAUGUAAGGAUAUGCACUAGAGGGCAAACCCUCUUAACGGCAGAAGGUGCAGGGA [Qudile] (Eterna round: R97, puzzle: Exclusion 1) |  | 115 | 15 | 
CGGGUGCGGUGAGGAUAUCCGAAAGGAAGUGUAGGAGAAGGCACCAAGAACAUGAGGAUCACCCAUGUGACCUCAUAAGCCCGG [PowerStrip EXNG 1.9] (Eterna round: R96, puzzle: Exclusion NG 1) |  | 34.9 | 406 | apparent KD of MS2 coat protein [4]: 254 nM

Sequence | apparent KD of MS2 coat protein [2] [nM] | apparent KD of MS2 coat protein (input ligand: FMN 200 uM) [nM] | apparent KD of MS2 coat protein (input ligand: none) [nM] | also measured
ACAAGCUUUUGCUCGUCUUACAUGAGGAUCACCCAUGUCGGGAACAUGCAUACAUACAACAUAUAAACAGUAACAGA [high energy, high % A (36%)] (Eterna round: R97, puzzle: Sensor, turn-off variant 1) |  | 20.1 | 21.2 | 
AGCUGUGGCCGAGGAUAUACAAUAACGAUGAGUGGAUUACACUCUUCGACAUGAGGAUCACCCAUGUAGAAGGCGGUCUCAGCA [Eli eng2 - 001] (Eterna round: R96, puzzle: Exclusion NG 2) |  | 41.3 | 18 | apparent KD of MS2 coat protein [4]: 14.6 nM
CUGGUCCGAGGAUAUAUUAAGUGAAACAUGAGGAUCACCCAUGUUAUUUAAUGGAAAUAAAUAGAAGGCGGACUAG [Mat - Exclusion 5 - JL mod - D55] (puzzle: Exclusion 5) | 33.7 |  |  | apparent KD of MS2 coat protein [1]: 34.4 nM; apparent KD of MS2 coat protein [3]: 59.9 nM
CCGGAACAUGAGGAUCACCCAUGUGAGGAUAUCGUACGUUCGUCGAAAGACGAUCGUACGAGAAGGCACGCCGG [Eli x1 4.33] (Eterna round: R97, puzzle: Exclusion 1) |  | 17.2 | 14.6 | 
CCGGCGUGGUGCGGUUGUCGUUCGACAUGAGGAUCACCCAUGUAGGAUAUGCGCGUGGUCGCGCCGCAGAAGGGCAUCGUUUGG [Random, 15% A] (Eterna round: R96, puzzle: Exclusion NG 3) |  | 10.7 | 14.5 | apparent KD of MS2 coat protein [4]: 10.7 nM
AGAUUAAAAGUAAGGAUAUGCUUCCGGAAACGGAGGCAGAAGGUACAUGAGGAUCACCCAUGUUAAACUAAUUU [Explosion 5 - Jieux - Brourd's mod of Exclusion 4] (Eterna round: R97, puzzle: Brourd's mod of Exclusion 4) |  | 21.2 | 15.3 | 
GGUGCGUAUGUGAGGAUAUGCUGGUCCUUGGAUCGGCAGAAGGCACAUGAGGAUCACCCAUGUGGUGUCGUACC [salish99_Bmod_Ex4_023] (puzzle: Brourd's mod of Exclusion 4) | 165 |  |  | 
GGUGCGUUUGUGAGGAUAUGCUGGUCCUUGGUUCGGCAGAAGGCACAUGAGGAUCACCCAUGUGGUGUCGUACC [salish99_Bmod_Ex4_043] (puzzle: Brourd's mod of Exclusion 4) | 15.7 |  |  | 
AAUAAUGUAGGAUAUACAUGAGGAUCACCCAUGUCCCACCCGUUACCUAUGACCAUAUGUAGAAGGACAAAUAA [Exy#4] (Eterna round: R97, puzzle: Exclusion 3) |  | 56.7 | 67.3 | 
GUAGAGUGAGGAUAUACAAGAUCGAAAGAUCGGCGAUCCAUACAUGAGGAUCACCCAUGUAGAAGGCACUCUAC [Eli x2 4.007] (Eterna round: R97, puzzle: Exclusion 2) |  | 678 | 102 | 
CAGUACUGCAGGCUUAGGGACAUGAGGAUCACCCAUGUUCGUCUUAUUGAUCUAGGUACGCUGACGUACCUAGAUCU [JL-sv1-2.15 Brourd mod] (puzzle: Sensor v3, turn-off variant 1) | 19 |  |  | apparent KD of MS2 coat protein [1]: 16.9 nM; apparent KD of MS2 coat protein [3]: 18.1 nM
GUAGGGUCAGGAUAUACGGGCGGGAGGAUGUAUUGUAGUUGGUAGAAGGGACAUGAGGAUCACCCAUGUGAGAA [JR_Exclu4_Sub054] (puzzle: Exclusion 4) | 31 |  |  | 
CCCAGUUAUGAAGGAUAUUGUACAUGAGGAUCACCCAUGUAAUAAAUGAGGAUUUCGGGUGUCUACAAGAAGGUCAGGAUAGGC [Ostracism 14 - Jieux - Exclusion NG 2] (Eterna round: R96, puzzle: Exclusion NG 2) |  | 82.8 | 60.6 | apparent KD of MS2 coat protein [4]: 43.6 nM
GAUUAUGCGAGCUUUAGGGACAUGAGGAUCACCCAUGUUCGUCUUAUUGAUCUAGGUACGCUAACAUACCUAAAUCU [Mod of one of jandersonlee's solutions 3] (puzzle: Sensor v3, turn-off variant 1) | 36.3 |  |  | apparent KD of MS2 coat protein [1]: 23 nM; apparent KD of MS2 coat protein [3]: 23 nM
GCAGCAAAUUCCAUUAAAACCACAUGAGGAUCACCCAUGUCUCAGGAUAUGGUCUGGAUUACAGGCCAGAAGGGAGAAAGCUGC [Eli exng3 - 055] (Eterna round: R96, puzzle: Exclusion NG 3) |  | 10.1 | 16.3 | apparent KD of MS2 coat protein [4]: 11.9 nM
AAAAAGCGAGGAUAUGCGGGCGGGUGCGGCCAGCCGAUGUGACAUGAGGAUCACCCAUGUAGAAGGCGCAAAAA [Excls2-VII] (puzzle: Exclusion 2) | 12.3 |  |  | 
GAAACCAGAGGAUAUGCGAAUAAAUAAAACUUUUUUUUUUAACAUGAGGAUCACCCAUGUAGAAGGCUGCAAAG [Ex2 #35] (Eterna round: R97, puzzle: Exclusion 2) |  | 32 | 31 | 
